Experimental data from PMC7190642.

Assays:
[1] = target: GST-cat MDM2-422–C-S429E (Felis catus (cat)) (UniProt Q7YRZ8); assay: SPR; GST-tagged MDM2 variants captured on a CM-5 chip with coupled anti-GST antibody; serial dilution of UbcH5B–Ub as analyte; 25 °C; 25 mM Tris-HCl pH 7.6, 150 mM NaCl, 0.1 mg/ml BSA, 1 mM DTT, 0.005% Tween-20; Biacore T200; GST alone subtracted
[2] = target: GST-MDM2-350–C-6D (human) (UniProt Q00987); assay: as above
[3] = target: GST-MDM2-350–C-S386D (human) (UniProt Q00987); assay: as above
[4] = target: GST-MDM2-350–C/His-MDMX-428–C heterodimer (UniProt Q00987); assay: as above
[5] = target: GST-MDM2-350–C-S425D (human) (UniProt Q00987); assay: as above
[6] = target: GST-MDM2-419–C/His-MDMX-418–C heterodimer (UniProt Q00987); assay: as above
[7] = target: GST-MDM2-350–C-S407D (human) (UniProt Q00987); assay: as above
[8] = target: GST-MDM2-419–C-S429E/His-MDMX-418–C heterodimer (UniProt Q00987); assay: as above
[9] = target: GST-MDM2-350–C-T419D (human) (UniProt Q00987); assay: as above
[10] = target: GST-cat MDM2-422–C (Felis catus (cat)) (UniProt Q7YRZ8); assay: as above
[11] = target: GST-MDM2-419–C-S429D (human) (UniProt Q00987); assay: as above
GST-MDM2-419–C (human) = GST-MDM2-419–C (human) (UniProt Q00987); assay: as above
[12] = target: GST-MDM2-419–C-pS429 (human) (UniProt Q00987); assay: as above
[13] = target: GST-MDM2-350–C-S395D (human) (UniProt Q00987); assay: as above
[14] = target: GST-MDM2-419–C-S429E (human) (UniProt Q00987); assay: as above
[15] = target: GST-MDM2-350–C-S429D (human) (UniProt Q00987); assay: as above
[16] = target: GST-MDM2-350–C-6D/His-MDMX-428–C heterodimer (UniProt Q00987); assay: as above
[17] = target: GST-MDM2-419–C-S429E (human) (UniProt Q00987)

- Kd [1]: 6.8 µM
- Kd [2]: 6.7 µM
- Kd [3]: 13.7 µM
- Kd [4]: 36.7 µM
- Kd [5]: 13.4 µM
- Kd [6]: 23.4 µM
- Kd [7]: 13.7 µM
- Kd [8]: 17.8 µM
- Kd [9]: 13 µM
- Kd [10]: 16.8 µM
- Kd [11]: 7.1 µM
- Kd (GST-MDM2-419–C (human)): 14 µM
- Kd [12]: 5.1 µM
- Kd [13]: 13.7 µM
- Kd [14]: 6.4 µM
- Kd [15]: 7.8 µM
- Kd [16]: 29.2 µM
- rate of autoubiquitination of the MDM2 homodimer over time, S429E against WT [17]: 1.6 fold
Substance: UbcH5B S22R, C85K–Ub (stably conjugated E2–ubiquitin) (from UniProt P62837 1-147; P0CG47 1-76) (complex)
